Results reported in patent publication US20130323249A1 (published 2013).

Target: human PD-L1 expressed on the surface of cells (human, UniProt Q9NZQ7 19-290)
Test: FACS binding to human lymphocytes

Chain of human PD-L1 expressed on the surface of cells (Q9NZQ7 19-290): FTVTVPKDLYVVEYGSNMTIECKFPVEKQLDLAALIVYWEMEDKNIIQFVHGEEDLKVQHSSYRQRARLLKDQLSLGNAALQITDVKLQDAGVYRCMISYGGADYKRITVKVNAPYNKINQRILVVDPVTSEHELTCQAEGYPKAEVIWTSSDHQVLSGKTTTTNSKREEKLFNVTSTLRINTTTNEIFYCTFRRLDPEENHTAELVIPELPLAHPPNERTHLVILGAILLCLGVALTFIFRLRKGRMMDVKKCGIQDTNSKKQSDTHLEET

EC50 | Binder
0.021 µg/mL | H10 anti-PD-L1 antibody (antibody, V domains shown) VH: EVQLVQSGGGLVQPGGSLRLSCAASGFTFSSYSMNWVRQAPGKGLEWVSYISSSSSTIYYADSVKGRFTISRDNAKNSLYLQMNSLRDEDTAVYYCARGDYYYGMDVWGQGTTVTVSS VL: EIVLTQSPSSLSASIGDRVTLTCRASQSIRRFLNWYQQKPGKAPELLIYTASSLQSGVPSRFSGSGSGTDFTLTINSLQPEDFATYYCQQSYAVSPYTFGQGTKVEIR
0.03 µg/mL | H6 anti-PD-L1 antibody (antibody, V domains shown) VH: QMQLVQSGAEVKKPGSSVKVSCKASGGTFSSYAISWVRQAPGQGLEWMGGIIPIFGTANYAQKFQGRVTITADESTSTAYMELSSLRSEDTAVYYCARGNIVATITPLDYWGQGTLVTVSS VL: SYELMQPPSVSVAPGKTATIACGGENIGRKTVHWYQQKPGQAPVLVIYYDSDRPSGIPERFSGSNSGNTATLTISRVEAGDEADYYCQVWDSSSDHRIFGGGTKLTVL
